Data: US20260167699A1 (Chugai, published 2026)

Assays:
Assay in all cases: SPR; % of GpH7-A5/GpH7-B3/GpL16-k0
[1] = molecular target: T1, FcγRIIIa extracellular domain with C-terminal His tag (human, UniProt P08637 17-208)
T1 construct: extracellular domain; also called 3a; CD16

[2] = molecular target: T2, FcγRIIa(R) extracellular domain with C-terminal His tag (human, UniProt P12318 34-217)
T2 construct: extracellular domain; R131 allotype; also called 2aR; CD32
T2 sequence: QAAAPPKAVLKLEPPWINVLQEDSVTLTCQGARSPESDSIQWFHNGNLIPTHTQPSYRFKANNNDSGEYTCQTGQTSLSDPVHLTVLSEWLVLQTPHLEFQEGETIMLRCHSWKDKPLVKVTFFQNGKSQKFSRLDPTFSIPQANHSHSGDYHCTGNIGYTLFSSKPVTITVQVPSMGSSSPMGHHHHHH

[3] = molecular target: T3, FcγRIIa(H) extracellular domain with C-terminal His tag (human, UniProt P12318 34-217)
T3 construct: extracellular domain; H131 allotype; also called 2aH; CD32
T3 sequence: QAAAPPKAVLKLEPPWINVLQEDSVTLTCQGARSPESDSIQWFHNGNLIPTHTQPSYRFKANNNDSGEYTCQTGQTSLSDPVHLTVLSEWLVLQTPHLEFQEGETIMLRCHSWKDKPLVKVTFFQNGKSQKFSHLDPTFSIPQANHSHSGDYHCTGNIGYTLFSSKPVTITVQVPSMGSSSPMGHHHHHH

[4] = molecular target: T4, FcγRIIb extracellular domain with C-terminal His tag (human, UniProt P31994 43-217)
T4 construct: extracellular domain; also called 2b; CD32
T4 sequence: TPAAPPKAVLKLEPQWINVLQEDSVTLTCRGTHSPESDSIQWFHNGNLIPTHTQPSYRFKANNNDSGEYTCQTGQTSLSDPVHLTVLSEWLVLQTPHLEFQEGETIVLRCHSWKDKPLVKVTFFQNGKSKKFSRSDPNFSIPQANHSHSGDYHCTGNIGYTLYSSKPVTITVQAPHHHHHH

[5] = molecular target: T5, FcγRIa extracellular domain with C-terminal His tag (human, UniProt P12314 16-292)
T5 construct: extracellular domain; also called 1a; CD64
T5 sequence (P12314 other isoform, or with tags, fused parts or gaps): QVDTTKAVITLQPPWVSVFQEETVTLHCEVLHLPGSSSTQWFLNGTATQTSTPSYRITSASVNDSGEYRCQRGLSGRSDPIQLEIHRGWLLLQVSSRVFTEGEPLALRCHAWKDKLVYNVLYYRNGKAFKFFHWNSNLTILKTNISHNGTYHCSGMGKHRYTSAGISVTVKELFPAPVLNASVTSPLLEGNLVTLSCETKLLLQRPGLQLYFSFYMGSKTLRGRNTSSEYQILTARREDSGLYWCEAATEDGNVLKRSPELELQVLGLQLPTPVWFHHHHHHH

T1 sequence (P08637 other isoform, or with tags, fused parts or gaps): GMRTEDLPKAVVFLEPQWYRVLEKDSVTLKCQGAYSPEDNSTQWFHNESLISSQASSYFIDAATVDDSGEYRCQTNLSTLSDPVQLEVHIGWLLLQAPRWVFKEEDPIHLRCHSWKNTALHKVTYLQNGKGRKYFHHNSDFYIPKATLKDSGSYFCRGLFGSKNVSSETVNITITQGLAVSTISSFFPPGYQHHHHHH

B1: GpH7-A5/GpH7-B3 variant P331_06M/GpL16-k0 (antibody, human IgG1, kappa)
heavy 1: not shown
heavy 2: not shown
light: DIVMTQSPLSLPVTPGEPASISCQASESLVHSNRNTYLHWYLQKPGQSPQLLIYKVSNRFSGVPDRFSGSGSGTDFTLKISRVEAEDVGVYYCSQNTHVPPTFGQGTKVEIERTVAAPSVFIFPPSDEQLKSGTASVVCLLNNFYPREAKVQWKVDNALQSGNSQESVTEQDSKDSTYSLSSTLTLSKADYEKHKVYACEVTHQGLSSPVTKSFNRGEC
notes: heterodimerized IgG1 (He Ab), mutation in one H chain only; also called He Ab
He/Con 3a [1]: 68.4%
He/Con 2aR [2]: 105%
He/Con 2aH [3]: 88.1%
He/Con 2b [4]: 113%
He/Con 1a [5]: 106%

B2: GpH7-A5/GpH7-B3 variant P331_07I/GpL16-k0 (antibody, human IgG1, kappa)
heavy 1: not shown
heavy 2: not shown
light: DIVMTQSPLSLPVTPGEPASISCQASESLVHSNRNTYLHWYLQKPGQSPQLLIYKVSNRFSGVPDRFSGSGSGTDFTLKISRVEAEDVGVYYCSQNTHVPPTFGQGTKVEIERTVAAPSVFIFPPSDEQLKSGTASVVCLLNNFYPREAKVQWKVDNALQSGNSQESVTEQDSKDSTYSLSSTLTLSKADYEKHKVYACEVTHQGLSSPVTKSFNRGEC
notes: as for B1
He/Con 3a [1]: 60.4%
He/Con 2aR [2]: 109%
He/Con 2aH [3]: 80.1%
He/Con 2b [4]: 127%
He/Con 1a [5]: 106%

B3: GpH7-A5/GpH7-B3 variant P331_08L/GpL16-k0 (antibody, human IgG1, kappa)
heavy 1: not shown
heavy 2: not shown
light: DIVMTQSPLSLPVTPGEPASISCQASESLVHSNRNTYLHWYLQKPGQSPQLLIYKVSNRFSGVPDRFSGSGSGTDFTLKISRVEAEDVGVYYCSQNTHVPPTFGQGTKVEIERTVAAPSVFIFPPSDEQLKSGTASVVCLLNNFYPREAKVQWKVDNALQSGNSQESVTEQDSKDSTYSLSSTLTLSKADYEKHKVYACEVTHQGLSSPVTKSFNRGEC
notes: as for B1
He/Con 3a [1]: 66%
He/Con 2aR [2]: 101%
He/Con 2aH [3]: 85.9%
He/Con 2b [4]: 106%
He/Con 1a [5]: 105%

B4: GpH7-A5/GpH7-B3 variant P331_09D/GpL16-k0 (antibody, human IgG1, kappa)
heavy 1: not shown
heavy 2: not shown
light: DIVMTQSPLSLPVTPGEPASISCQASESLVHSNRNTYLHWYLQKPGQSPQLLIYKVSNRFSGVPDRFSGSGSGTDFTLKISRVEAEDVGVYYCSQNTHVPPTFGQGTKVEIERTVAAPSVFIFPPSDEQLKSGTASVVCLLNNFYPREAKVQWKVDNALQSGNSQESVTEQDSKDSTYSLSSTLTLSKADYEKHKVYACEVTHQGLSSPVTKSFNRGEC
notes: as for B1
He/Con 3a [1]: 71.6%
He/Con 2aR [2]: 101%
He/Con 2aH [3]: 93.6%
He/Con 2b [4]: 104%
He/Con 1a [5]: 109%

B5: GpH7-A5/GpH7-B3 variant P331_10E/GpL16-k0 (antibody, human IgG1, kappa)
heavy 1: not shown
heavy 2: not shown
light: DIVMTQSPLSLPVTPGEPASISCQASESLVHSNRNTYLHWYLQKPGQSPQLLIYKVSNRFSGVPDRFSGSGSGTDFTLKISRVEAEDVGVYYCSQNTHVPPTFGQGTKVEIERTVAAPSVFIFPPSDEQLKSGTASVVCLLNNFYPREAKVQWKVDNALQSGNSQESVTEQDSKDSTYSLSSTLTLSKADYEKHKVYACEVTHQGLSSPVTKSFNRGEC
notes: as for B1
He/Con 3a [1]: 68.7%
He/Con 2aR [2]: 112%
He/Con 2aH [3]: 90.1%
He/Con 2b [4]: 128%
He/Con 1a [5]: 108%

B6: GpH7-A5/GpH7-B3 variant P331_11K/GpL16-k0 (antibody, human IgG1, kappa)
heavy 1: not shown
heavy 2: not shown
light: DIVMTQSPLSLPVTPGEPASISCQASESLVHSNRNTYLHWYLQKPGQSPQLLIYKVSNRFSGVPDRFSGSGSGTDFTLKISRVEAEDVGVYYCSQNTHVPPTFGQGTKVEIERTVAAPSVFIFPPSDEQLKSGTASVVCLLNNFYPREAKVQWKVDNALQSGNSQESVTEQDSKDSTYSLSSTLTLSKADYEKHKVYACEVTHQGLSSPVTKSFNRGEC
notes: as for B1
He/Con 3a [1]: 61.8%
He/Con 2aR [2]: 94.6%
He/Con 2aH [3]: 83.7%
He/Con 2b [4]: 93.9%
He/Con 1a [5]: 100%

B7: GpH7-A5/GpH7-B3 variant P331_12R/GpL16-k0 (antibody, human IgG1, kappa)
heavy 1: not shown
heavy 2: not shown
light: DIVMTQSPLSLPVTPGEPASISCQASESLVHSNRNTYLHWYLQKPGQSPQLLIYKVSNRFSGVPDRFSGSGSGTDFTLKISRVEAEDVGVYYCSQNTHVPPTFGQGTKVEIERTVAAPSVFIFPPSDEQLKSGTASVVCLLNNFYPREAKVQWKVDNALQSGNSQESVTEQDSKDSTYSLSSTLTLSKADYEKHKVYACEVTHQGLSSPVTKSFNRGEC
notes: as for B1
He/Con 3a [1]: 64.8%
He/Con 2aR [2]: 88.7%
He/Con 2aH [3]: 84.3%
He/Con 2b [4]: 85%
He/Con 1a [5]: 100%

B8: GpH7-A5/GpH7-B3 variant P331_13S/GpL16-k0 (antibody, human IgG1, kappa)
heavy 1: not shown
heavy 2: not shown
light: DIVMTQSPLSLPVTPGEPASISCQASESLVHSNRNTYLHWYLQKPGQSPQLLIYKVSNRFSGVPDRFSGSGSGTDFTLKISRVEAEDVGVYYCSQNTHVPPTFGQGTKVEIERTVAAPSVFIFPPSDEQLKSGTASVVCLLNNFYPREAKVQWKVDNALQSGNSQESVTEQDSKDSTYSLSSTLTLSKADYEKHKVYACEVTHQGLSSPVTKSFNRGEC
notes: as for B1
He/Con 3a [1]: 80.9%
He/Con 2aR [2]: 104%
He/Con 2aH [3]: 94%
He/Con 2b [4]: 107%
He/Con 1a [5]: 108%

B9: GpH7-A5/GpH7-B3 variant P331_14T/GpL16-k0 (antibody, human IgG1, kappa)
heavy 1: not shown
heavy 2: not shown
light: DIVMTQSPLSLPVTPGEPASISCQASESLVHSNRNTYLHWYLQKPGQSPQLLIYKVSNRFSGVPDRFSGSGSGTDFTLKISRVEAEDVGVYYCSQNTHVPPTFGQGTKVEIERTVAAPSVFIFPPSDEQLKSGTASVVCLLNNFYPREAKVQWKVDNALQSGNSQESVTEQDSKDSTYSLSSTLTLSKADYEKHKVYACEVTHQGLSSPVTKSFNRGEC
notes: as for B1
He/Con 3a [1]: 67.8%
He/Con 2aR [2]: 104%
He/Con 2aH [3]: 86.5%
He/Con 2b [4]: 111%
He/Con 1a [5]: 102%

B10: GpH7-A5/GpH7-B3 variant P331_15Y/GpL16-k0 (antibody, human IgG1, kappa)
heavy 1: not shown
heavy 2: not shown
light: DIVMTQSPLSLPVTPGEPASISCQASESLVHSNRNTYLHWYLQKPGQSPQLLIYKVSNRFSGVPDRFSGSGSGTDFTLKISRVEAEDVGVYYCSQNTHVPPTFGQGTKVEIERTVAAPSVFIFPPSDEQLKSGTASVVCLLNNFYPREAKVQWKVDNALQSGNSQESVTEQDSKDSTYSLSSTLTLSKADYEKHKVYACEVTHQGLSSPVTKSFNRGEC
notes: as for B1
He/Con 3a [1]: 74.9%
He/Con 2aR [2]: 112%
He/Con 2aH [3]: 89%
He/Con 2b [4]: 127%
He/Con 1a [5]: 109%

B11: GpH7-A5/GpH7-B3 variant P331_16H/GpL16-k0 (antibody, human IgG1, kappa)
heavy 1: not shown
heavy 2: not shown
light: DIVMTQSPLSLPVTPGEPASISCQASESLVHSNRNTYLHWYLQKPGQSPQLLIYKVSNRFSGVPDRFSGSGSGTDFTLKISRVEAEDVGVYYCSQNTHVPPTFGQGTKVEIERTVAAPSVFIFPPSDEQLKSGTASVVCLLNNFYPREAKVQWKVDNALQSGNSQESVTEQDSKDSTYSLSSTLTLSKADYEKHKVYACEVTHQGLSSPVTKSFNRGEC
notes: as for B1
He/Con 3a [1]: 73.4%
He/Con 2aR [2]: 113%
He/Con 2aH [3]: 87.5%
He/Con 2b [4]: 128%
He/Con 1a [5]: 105%

B12: GpH7-A5/GpH7-B3 variant P331_18N/GpL16-k0 (antibody, human IgG1, kappa)
heavy 1: not shown
heavy 2: not shown
light: DIVMTQSPLSLPVTPGEPASISCQASESLVHSNRNTYLHWYLQKPGQSPQLLIYKVSNRFSGVPDRFSGSGSGTDFTLKISRVEAEDVGVYYCSQNTHVPPTFGQGTKVEIERTVAAPSVFIFPPSDEQLKSGTASVVCLLNNFYPREAKVQWKVDNALQSGNSQESVTEQDSKDSTYSLSSTLTLSKADYEKHKVYACEVTHQGLSSPVTKSFNRGEC
notes: as for B1
He/Con 3a [1]: 67.1%
He/Con 2aR [2]: 104%
He/Con 2aH [3]: 87.2%
He/Con 2b [4]: 110%
He/Con 1a [5]: 106%

B13: GpH7-A5/GpH7-B3 variant P331_19Q/GpL16-k0 (antibody, human IgG1, kappa)
heavy 1: not shown
heavy 2: not shown
light: DIVMTQSPLSLPVTPGEPASISCQASESLVHSNRNTYLHWYLQKPGQSPQLLIYKVSNRFSGVPDRFSGSGSGTDFTLKISRVEAEDVGVYYCSQNTHVPPTFGQGTKVEIERTVAAPSVFIFPPSDEQLKSGTASVVCLLNNFYPREAKVQWKVDNALQSGNSQESVTEQDSKDSTYSLSSTLTLSKADYEKHKVYACEVTHQGLSSPVTKSFNRGEC
notes: as for B1
He/Con 3a [1]: 73.9%
He/Con 2aR [2]: 96.1%
He/Con 2aH [3]: 91.6%
He/Con 2b [4]: 94%
He/Con 1a [5]: 108%
